Article PMC6658616, “Novel Peptide Conjugates of Modified Oligonucleotides for Inhibition of Bacterial RNase P” (Frontiers in Pharmacology, 2019)

Key:
E. coli = assay: Conjugate penetration into bacterial cells, flow cytometry; type: cell-based, Escherichia coli; conditions: 1 µM conjugate in LB medium, 1 h at 37°C, 3'-fluorescein label, mean ± SD from four independent experiments
A. baumannii = assay: as above; type: cell-based, Acinetobacter baumannii; conditions: 1 µM conjugate in LB medium, 1 h at 37°C, 3'-fluorescein label, mean ± SD from four independent experiments

## 5’-Pept1-d(CAAGCAGCxCxTxAxCxCxC)–Flu-3’ [5'-Pept1-pgd-inh3-Flu, 5’-Pept1 conjugate of pgd-inh3 with 3’-fluorescein]
E. coli
  Level of penetration, %, E.coli: 4,1±0,1%
A. baumannii
  Level of penetration, %, A. baumannii: 1,8±0,2%

## 5’-Pept2-d(CAAGCAGCxCxTxAxCxCxC)–Flu-3’ [5'-Pept2-pgd-inh3-Flu, 5’-Pept2 conjugate of pgd-inh3 with 3’-fluorescein]
E. coli
  Level of penetration, %, E.coli: 5,3±0,3%
A. baumannii
  Level of penetration, %, A. baumannii: 6,5±0,5%
A. baumannii; listed as 5’-Pept2 -pgd-inh3- Flu
  Level of penetration, %, A. baumannii: 6.5%

## 5’-Pept3-d(CAAGCAGCxCxTxAxCxCxC)–Flu-3’ [5'-Pept3-pgd-inh3-Flu, 5’-Pept3 conjugate of pgd-inh3 with 3’-fluorescein]
E. coli
  Level of penetration, %, E.coli: 7,0±1%
A. baumannii
  Level of penetration, %, A. baumannii: 1,7±0,3%

## 5’-Pept4-d(CAAGCAGCxCxTxAxCxCxC)–Flu-3’ [5'-Pept4-pgd-inh3-Flu, 5’-Pept4 conjugate of pgd-inh3 with 3’-fluorescein]
E. coli
  Level of penetration, %, E.coli: 6,4±0,2%
A. baumannii
  Level of penetration, %, A. baumannii: 2,0±0,3%
